The numbers were not newly measured in article PMC7174325, which cites them from elsewhere.

As a reminder, the Kd is a measure of binding affinity in units of concentration.

Series [1] concerns the target BAK (Homo sapiens) (UniProt Q16611). The series is described as follows: ITC. Background: In ITC the heat of successive injections is recorded.
For series [2], the target named is BAX (Homo sapiens) (UniProt Q07812). The series is described as follows: ITC.
For series [3], the target named is BAD (Homo sapiens) (UniProt Q92934).
The target is the same in series [4]. This is another data set of the same source.

Like-named read-outs stand apart in the source and are kept apart here.

Chain of BCL-w (Q92843 2-193): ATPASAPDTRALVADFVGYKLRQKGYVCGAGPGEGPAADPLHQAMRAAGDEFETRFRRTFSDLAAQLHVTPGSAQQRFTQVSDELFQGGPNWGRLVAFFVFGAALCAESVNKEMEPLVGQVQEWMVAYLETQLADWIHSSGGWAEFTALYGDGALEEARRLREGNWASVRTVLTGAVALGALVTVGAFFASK
Chain of BAD (Homo sapiens) (Q92934 whole entry): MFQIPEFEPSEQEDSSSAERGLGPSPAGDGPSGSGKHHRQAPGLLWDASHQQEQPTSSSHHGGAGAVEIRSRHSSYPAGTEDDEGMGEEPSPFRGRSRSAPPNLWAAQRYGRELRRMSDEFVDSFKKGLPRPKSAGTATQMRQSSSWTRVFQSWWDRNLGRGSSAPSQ
Chain of BCL-w homodimer (Q92843 2-193): as the sequence (Q92843 2-193) above
Chain of BCL-w monomer (Q92843 2-193): as above
Chain of BAX (Homo sapiens) (Q07812 whole entry): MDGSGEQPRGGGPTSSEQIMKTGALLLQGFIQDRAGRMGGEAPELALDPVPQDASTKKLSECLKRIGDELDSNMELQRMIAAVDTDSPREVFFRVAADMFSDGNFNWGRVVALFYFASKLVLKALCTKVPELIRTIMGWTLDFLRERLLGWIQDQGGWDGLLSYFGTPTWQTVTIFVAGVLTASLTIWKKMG
Chain of BAK (Homo sapiens) (Q16611 2-211): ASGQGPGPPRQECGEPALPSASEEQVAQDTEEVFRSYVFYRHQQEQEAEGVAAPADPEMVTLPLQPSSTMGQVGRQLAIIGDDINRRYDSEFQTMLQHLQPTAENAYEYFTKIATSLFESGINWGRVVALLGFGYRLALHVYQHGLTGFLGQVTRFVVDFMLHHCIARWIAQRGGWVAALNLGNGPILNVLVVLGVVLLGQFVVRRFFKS

As to BCL-w (from UniProt Q92843), the Kd is 114 nM in series [1] and 22.9 nM in series [2].

As for BCL-w homodimer (from UniProt Q92843), the Kd in series [3] is 150 nM.

In the case of BCL-w monomer (from UniProt Q92843), the dissociation constant Kd in series [4] was 14 nM.
